Results taken from patent US20260242478A1 (published 2026).
Where no end group is shown, it is not given here.

Tests used:
[1] = molecular target: T1, Anti-PSMA Fab (SEQ ID NOs: 19, 20); test: phage binding ELISA; Fab-coated wells pre-incubated with PSMA antigen as competitor, anti-M13-HRP detection;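 further: clonal phage supernatants screened, with reference wells given blocking buffer only (no PSMA antigen) before phage were added for a brief incubation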
T1 construct: Biotinylated PSMA Fab captured on neutravidin coated plates in the phage ELISA; also called 006 PSMA Fab
Experimental: (§1) Clonal phage were harvested as crude supernatants and screened via standard ELISAs. […] Prior to the addition of clonal phage. wells were incubated with blocking buffer and PSMA antigen or blocking buffer alone. Without washing or aspirating, clonal phage supernatants were then added to the wells and incubated for a short time. Wells were then washed followed by detection of bound phage using a horse radish conjugated anti-M13 antibody.

[2] = molecular target: T1, Anti-PSMA Fab (SEQ ID NOs: 19, 20); test: phage binding ELISA; biotinylated PSMA Fab on neutravidin plate, clonal phage, anti-M13-HRP detection
Experimental: as §1

[3] = molecular target: T2, Anti-PSMA Fab (SEQ ID NOs: 19, 20); test: phage binding ELISA; PSMA Fab on plate pre-incubated with PSMA antigen as competitor, anti-M13-HRP detection
T2 construct: Biotinylated and captured on neutravidin coated plates in the phage ELISA; also called 006 PSMA Fab
Experimental: as §1

[4] = molecular target: T2, Anti-PSMA Fab (SEQ ID NOs: 19, 20); test: phage binding ELISA; biotinylated PSMA Fab on neutravidin plate, bound phage detected with anti-M13-HRP
Experimental: as §1

[5] = molecular target: T3, Anti-PSMA Fab (SEQ ID NOs: 19, 20); test: phage ELISA; biotinylated PSMA Fab on neutravidin plate, clonal phage supernatant, anti-M13 HRP detection;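 further: wells preincubated with PSMA antigen in blocking buffer or with blocking buffer only before clonal phage were added for a short incubation, then bound phage detected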
T3 construct: In the phage ELISA the Fab was biotinylated and captured on neutravidin coated plates; also called 006 PSMA Fab
Experimental: as §1

[6] = molecular target: T3, Anti-PSMA Fab (SEQ ID NOs: 19, 20); test: phage ELISA; biotinylated PSMA Fab on neutravidin plate pre-incubated with PSMA antigen (competitor), anti-M13 HRP detection
Experimental: as §1

Binder	Anti-PSMA Fab signal in the presence of PSMA [1]	Anti-PSMA Fab (SEQ ID NOs: 19, 20) signal [2]	Anti-PSMA Fab signal in the presence of PSMA [3]	Anti-PSMA Fab (SEQ ID NOs: 19, 20) signal [4]	further results
IVKWCTPPWMCTIY (Peptide-180 library clone, tested as clonal phage supernatant) [Phage-2019]	0.153	1.83			
VQKWCIPAWMCDYV (Peptide-180 library clone, tested as clonal phage supernatant) [Phage-2024]	0.0734	1.82			
LEKWCIPAWMCEVF (Peptide-180 library clone, tested as clonal phage supernatant) [Phage-2013]	0.0967	1.84			
FEKWCIPSWMCENA [Phage-2030]			0.0725	1.81	
PIRLCIPEWMCEMV (Peptide-180 library clone, tested as clonal phage supernatant) [Phage-2016]	0.0575	1.83			
MVKWCFPEWMCWTD (Peptide-180 library clone, tested as clonal phage supernatant) [Phage-2017]	0.136	1.83			
VVQLCSPVWMCEGF (Peptide-180 library clone, tested as clonal phage supernatant) [Phage-2015]	0.086	1.83			
VIKLCSPPWMCIGL (Peptide-180 library clone, tested as clonal phage supernatant) [Phage-2020]	0.0946	1.82			
IDNWCRPLWMCHGF (cysteine pairing not given here; also: displayed as fusion to phage pIII, Peptide-180 library clone) [Phage-2004]					Phage binding ELISA, Anti-PSMA Fab signal [5]: 1.85; Phage binding ELISA, Anti-PSMA Fab signal in the presence of PSMA [6]: 0.0907
EFVKCVPAWMCEWT (cysteine pairing not given here; also: fused to phage pIII, pIII sequence and linker not given here, Peptide-180 library clone) [Phage-2009]					Phage binding ELISA, Anti-PSMA Fab signal [5]: 1.84; Phage binding ELISA, Anti-PSMA Fab signal in the presence of PSMA [6]: 0.0768
HPKWCTPAWMCVML (cysteine pairing not given here; also: fused to phage pIII, pIII sequence and linker not given here, Peptide-180 library clone) [Phage-2008]					Phage binding ELISA, Anti-PSMA Fab signal [5]: 1.85; Phage binding ELISA, Anti-PSMA Fab signal in the presence of PSMA [6]: 0.0691
LDKWCTPSWMCYGM (Peptide-180 library clone, tested as clonal phage supernatant) [Phage-2018]	0.106	1.83			
FEKWCVPIWMCRDS (cysteine pairing not given here; also: displayed as fusion to phage pIII, Peptide-180 library clone) [Phage-2003]					Phage binding ELISA, Anti-PSMA Fab signal [5]: 1.85; Phage binding ELISA, Anti-PSMA Fab signal in the presence of PSMA [6]: 0.161
QDMWCIPPWMCWAQ (cysteine pairing not given here; also: fused to phage pIII, pIII sequence and linker not given here, Peptide-180 library clone) [Phage-2007]					Phage binding ELISA, Anti-PSMA Fab signal [5]: 1.85; Phage binding ELISA, Anti-PSMA Fab signal in the presence of PSMA [6]: 0.126
EAKWCIPAWMCEDA [Phage-2036]			0.0685	1.8	
LEKLCIPSWMCEGM (cysteine pairing not given here; also: displayed as fusion to phage pIII, Peptide-180 library clone) [Phage-2002]					Phage binding ELISA, Anti-PSMA Fab signal [5]: 1.85; Phage binding ELISA, Anti-PSMA Fab signal in the presence of PSMA [6]: 0.0942
VTKWCIPEWMCEYI (cysteine pairing not given here; also: fused to phage pIII, pIII sequence and linker not given here, Peptide-180 library clone) [Phage-2005]					Phage binding ELISA, Anti-PSMA Fab signal [5]: 1.85; Phage binding ELISA, Anti-PSMA Fab signal in the presence of PSMA [6]: 0.0658
PERWCIPVWMCESG (Peptide-180 library clone, tested as clonal phage supernatant) [Phage-2014]	0.0731	1.83			
DIKWCIPPWMCQVE [Phage-2032]			0.0691	1.81	

Binder	Anti-PSMA Fab signal in the presence of PSMA [1]	Anti-PSMA Fab (SEQ ID NOs: 19, 20) signal [2]	Anti-PSMA Fab signal in the presence of PSMA [3]	Anti-PSMA Fab (SEQ ID NOs: 19, 20) signal [4]	further results
MERWCKPAWMCADM (cysteine pairing not given here; also: fused to phage pIII, pIII sequence and linker not given here) [Phage-2038]			0.0809	1.8	
ELQRCTPWWMCFDV [Phage-2027]			0.0689	1.81	
GEKWCIPPWMCITN (Peptide-180 library clone, tested as clonal phage supernatant) [Phage-2012]	0.0697	1.84			
LPHWCTPLWMCEGF (cysteine pairing not given here; also: fused to phage pIII, pIII sequence and linker not given here, Peptide-180 library clone) [Phage-2006]					Phage binding ELISA, Anti-PSMA Fab signal [5]: 1.85; Phage binding ELISA, Anti-PSMA Fab signal in the presence of PSMA [6]: 0.0658
EGKWCIPPWMCERN [Phage-2029]			0.0762	1.81	
ALMWCIPQWMCQDQ (Peptide-180 library clone, tested as clonal phage supernatant) [Phage-2023]	0.102	1.82			
EVKWCTPAWMCEGF (cysteine pairing not given here; also: displayed as fusion to phage pIII, Peptide-180 library clone) [Phage-2001]					Phage binding ELISA, Anti-PSMA Fab signal [5]: 1.85; Phage binding ELISA, Anti-PSMA Fab signal in the presence of PSMA [6]: 0.0605
QLNWCIPEWMCQGL (Peptide-180 library clone, tested as clonal phage supernatant) [Phage-2022]	0.124	1.82			
VEKWCIPSWMCAEV (cysteine pairing not given here; also: fused to phage pIII, pIII sequence and linker not given here) [Phage-2031]			0.086	1.81	
IVKWCTPEWMCVGF [Phage-2034]			0.154	1.8	
IIKWCIPEWMCYMH [Phage-2028]			0.104	1.81	
WPMLCIPEWMCDGL [Phage-2033]			0.0977	1.8	
SLNWCIPEWMCEGF [Phage-2035]			0.0793	1.8	
DTHMCRPLWMCTGL (cysteine pairing not given here; also: fused to phage pIII, pIII sequence and linker not given here, Peptide-180 library clone) [Phage-2011]					Phage binding ELISA, Anti-PSMA Fab signal [5]: 1.84; Phage binding ELISA, Anti-PSMA Fab signal in the presence of PSMA [6]: 0.0778
LQKLCIPEWMCLNM (cysteine pairing not given here; also: fused to phage pIII, pIII sequence and linker not given here, Peptide-180 library clone) [Phage-2010]					Phage binding ELISA, Anti-PSMA Fab signal [5]: 1.84; Phage binding ELISA, Anti-PSMA Fab signal in the presence of PSMA [6]: 0.0655
TEIWCIPPWMCDGQ (Peptide-180 library clone, tested as clonal phage supernatant) [Phage-2021]	0.0686	1.82			
LEKWCTPLWMCVGI (Peptide-180 library clone, tested as clonal phage supernatant) [Phage-2026]	0.078	1.82			
ASPMCIPEWMCSGV [Phage-2037]			0.0687	1.8	
ELKRCTPSWMCEGI (Peptide-180 library clone, tested as clonal phage supernatant) [Phage-2025]	0.059	1.82			
